One data set deals with HpDnaBWt (Helicobacter pylori, UniProt O25916). The note with it: labelled compound; pH 7.5, 4 °C, UV 254 nm.
In another data set the target is HpDnaBDelN3 (Helicobacter pylori, UniProt O25916). As to conditions: labelled compound; pH 7.5, 4 °C, UV 254 nm.
The data set “SEC” concerns the molecule itself. Nature of the data set: SEC.

Changes are numbered by the printed parent chain.

With `Nc1ncnc2c1ncn2[C@@H]1O[C@H](COP(=O)(O)OP(=O)(O)OP(=O)(O)O)[C@@H](O)[C@H]1O` [∝-32PATP], the “UV cross-linking, SDS-PAGE, phosphorimager” value on HpDnaBWt is “Wild-type, DelN2 and DelN3 showed ATP binding”; at HpDnaBDelN3 it was “Wild-type, DelN2 and DelN3 showed ATP binding”.

B1: HpDnaBDelN3 (N-terminal deletion mutant N3 of HpDnaB, lacking 174 N-terminal residues) (domain or fragment)
chain: EVTGIPTGFVQLDNYTSGFNKGSLVIIGARPSMGKTSLMMNMVLSALNDDRGVAVFSLEMSAEQLALRALSDLTSINMHDLESGRLDDDQWENLAKCFDHLSQKKLFFYDKSYVRIEQIRLQLRKLKSQHKELGIAFIDYLQLMSGSKATKERHEQIAEISRELKTLARELEIPIIALVQLNRSLENRDDKRPILSDIKDSGGIEQDADIVLFLYRGYIYQMRAEDNKIDKLKKEGKIEEAQELYLKVNEERRIHKQNGSIEEAEIIVAKNRNGATGTVYTRFNAPFTRYEDMPIDSHLEEGQETKVDYDIVTT
By stoichiometry N is commonly meant a count of units in the complex or per binding partner. With B1, the “stoichiometry N” value in the data set “SEC” is 2.

B2: Helicobacter pylori DnaB helicase, wild-type, full-length (enzyme, Helicobacter pylori (strain 26695), UniProt O25916 1-488, looked up)
chain: MDHLKHLQQLQNIERIVLSGIVLANHKIEEVHSVLEPSDFYYPPNGLFFEIALKLHEEDCPIDENFIRQKMPKDKQIKEEDLVAIFAASPIDNIEAYVEEIKNASIKRKLFGLANTIREQALESAQKSSDILGAVEREVYALLNGSTIEGFRNIKEVLESAMDLITENQRKGSLEVTGIPTGFVQLDNYTSGFNKGSLVIIGARPSMGKTSLMMNMVLSALNDDRGVAVFSLEMSAEQLALRALSDLTSINMHDLESGRLDDDQWENLAKCFDHLSQKKLFFYDKSYVRIEQIRLQLRKLKSQHKELGIAFIDYLQLMSGSKATKERHEQIAEISRELKTLARELEIPIIALVQLNRSLENRDDKRPILSDIKDSGGIEQDADIVLFLYRGYIYQMRAEDNKIDKLKKEGKIEEAQELYLKVNEERRIHKQNGSIEEAEIIVAKNRNGATGTVYTRFNAPFTRYEDMPIDSHLEEGQETKVDYDIVTT
As to B2, the “stoichiometry N” value in the data set “SEC” is 6.

B3: HpDnaBMut (ATP binding site mutant, R204 to C in the WALKER A domain) (enzyme, Helicobacter pylori (strain 26695), UniProt O25916 1-488, looked up)
chain: B2 chain with R204C
Consider B3, for which the “stoichiometry N” value in “SEC” turned out to be 6.

B4: HpDnaBDelN2 (N-terminal deletion mutant N2 of HpDnaB, lacking 133 N-terminal residues) (domain or fragment)
chain: AVEREVYALLNGSTIEGFRNIKEVLESAMDLITENQRKGSLEVTGIPTGFVQLDNYTSGFNKGSLVIIGARPSMGKTSLMMNMVLSALNDDRGVAVFSLEMSAEQLALRALSDLTSINMHDLESGRLDDDQWENLAKCFDHLSQKKLFFYDKSYVRIEQIRLQLRKLKSQHKELGIAFIDYLQLMSGSKATKERHEQIAEISRELKTLARELEIPIIALVQLNRSLENRDDKRPILSDIKDSGGIEQDADIVLFLYRGYIYQMRAEDNKIDKLKKEGKIEEAQELYLKVNEERRIHKQNGSIEEAEIIVAKNRNGATGTVYTRFNAPFTRYEDMPIDSHLEEGQETKVDYDIVTT
In the case of B4, the “stoichiometry N” value in “SEC” came to 6.

These data come from paper PMC1888833 (Nucleic Acids Research, 2007).
